Experimental data from article PMC8610377, “Target identification for small-molecule discovery in the FOXO3a tumor-suppressor pathway using a biodiverse peptide library” (Cell Chemical Biology, 2021).

Legend:
[1] = system: GFP-FOXO3a localization in U2OS-GFP-FOXO3a cells; test: FOXO3a relocalisation assay, small-molecule inhibitors, U2OS-GFP-FOXO3a; assay type: cell-based, human
Description: Cells were transfected with plasmid DNA or siRNA or treated with compounds and incubated for the indicated time. Cells were then fixed in a final concentration of 3.7% formaldehyde by addition of fixative directly to the medium for 10min, then stained with 4 μg/mL Hoechst 33,342 (Invitrogen). For testing of peptides in the U2OS-GFP-FOXO3a cell line, cells were transfected with plasmid DNA using FuGENE 6 (Promega, E2691) as described for the screen. For testing of peptides in the HEK293T cell line, cells were co-transfected with a plasmid encoding the test plasmid and a plasmid encoding GFP-FOXO3a using JetPRIME transfection reagent in 96-well plates. At the indicated time point, cells were then fixed and stained as described above. Leptomycin B was purchased from NEB. PI-103 and BEZ235 were purchased from Selleckchem. GSK690693 was purchased from Sigma. […] Average intensities were calculated for each region and the ratio between nuclear and cytoplasmic GFP-FOXO3a was then calculated. […] Results were then expressed as the percentage of cells with nuclear GFP-FOXO3a. […] Images were acquired and then analyzed using a range of nuclear:cytoplasmic ratios to identify a ratio which reproducibly gave the maximal window between DMSO and PI-103 treated cells. […] Median intensities were calculated for each region and the ratio between nuclear and cytoplasmic GFP-FOXO3a was then calculated.

9J10/14-3-3ε interaction = biological target: T1, 9J10/14-3-3ε interaction (Homo sapiens, UniProt P62258); test: FP competition, TAMRA-p9J10Min binding to 14-3-3ε; settings: 10nM TAMRA-p9J10Min, 1.5μM His-14-3-3ε, room temperature 20 min; mean of 3 independent experiments +/- SD; read-out: IC50, FP competition (unlabelled peptide)
T1 construct: A synthetic gene construct encoding full length human 14-3-3ε; made in house; host or cells: E. coli BL21(DE3)
T1 sequence (P62258 1-255): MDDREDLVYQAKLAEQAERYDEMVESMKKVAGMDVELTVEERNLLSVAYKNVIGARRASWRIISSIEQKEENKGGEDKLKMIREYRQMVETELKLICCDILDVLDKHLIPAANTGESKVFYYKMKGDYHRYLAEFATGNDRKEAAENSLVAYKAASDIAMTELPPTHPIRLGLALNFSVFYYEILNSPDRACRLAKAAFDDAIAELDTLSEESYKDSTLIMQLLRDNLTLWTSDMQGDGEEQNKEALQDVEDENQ
Description: Protein purity was visualized by running SDS-PAGE. […] Compound dilution plates, black 384 well NBS assay plates and tip racks were loaded into the Cytomat as indicated by the scheduling software. […] Test compounds were diluted to 3X final concentration in the dilution plates. 10 μL of diluted compound was added into each well of the assay plate followed by 10μL of […]-3-3ε and 10μL of TAMRA-p9J10Min. Plates were incubated at room temperature for 20 min on the robot's deck or in the Cytomat before the Fluorescence Polarisation was read using the BMG PheraStar plate reader. Test compounds were assayed in triplicate. […] DMSO controls were run alongside all experimental compounds and % inhibition normalised to these controls. All other experimental conditions were as described above.

[2] = biological target: TAMRA-9J10Min peptide (5-TAMRA-GRRRN(p-Serine)N-acid) (Streptomyces avermitilis); test: fluorescence polarisation; His-14-3-3ε titrated against 10 nM TAMRA-p9J10Min; 10 mM HEPES, 150 mM NaCl, 0.05% Tween; room temperature
[3] = biological target: 6x His-14-3-3ε (full length human 14-3-3ε) (human) (UniProt P62258); test: MST; 20 nM NT-647-labelled 14-3-3ε with cognate peptide (16-point dilution; 1 μM in the competitive assay with CU7218); 10 mM Hepes, 150 mM NaCl, 0.01% Tween 20; 25°C
[4] = biological target: 6x His-14-3-3ε (full length human 14-3-3ε) (human) (UniProt P62258); test: fluorescence polarisation; competition: unlabelled 9J10 peptide titrated against 10 nM TAMRA-p9J10Min bound to 1.5 μM His-14-3-3ε; 10 mM HEPES, 150 mM NaCl, 0.05% Tween
[5] = system: transcriptome of HEK293T cells; test: RNA sequencing, differential gene expression; assay type: cell-based, human; settings: 24 h
Description: HEK293T cells were transfected in T75 flasks with plasmid DNA encoding Vector, 9J10^WT, 9J10^AMut, GFP-FOXO3a-AAA or GFP, using JetRPIME transfection reagent. Cells were harvested 24 hr post-transfection. Five independent transfections on different days and using cells of different passage number were carried out for each condition.
Total RNA was isolated using the Qiagen RNeasy Mini Kit (#74104) complete with DNase digestion (Qiagen #79254), according to manufacturers instructions. RNA was submitted to Novogene for transcriptome sequencing. RNA degradation and contamination was monitored on 1% agarose gels. RNA purity was checked using the NanoPhotometer spectrophotometer (IMPLEN, CA, USA), and RNA integrity and quantitation were assessed using the RNA Nano 6000 Assay Kit of the Bioanalyzer 2100 system (Agilent Technologies, CA, USA).
HTSeq v0.6.1 was used to count the read numbers mapped to each gene, and then FPKM of each gene was calculated based on the length of the gene and reads count mapped to this gene. FPKM, […] Per Kilobase of exon model per Million mapped reads, considers the effect of sequencing depth and gene length for the reads count at the same time, and is currently the most commonly used method for estimating gene expression levels ([Mortazavi et al., 2008]).
Differential expression analysis between two conditions/groups (with biological replicates) was performed using the DESeq2 R package (2_1.6.3). DESeq2 provide statistical routines for determining differential expression in digital gene expression data using a model based on the negative binomial distribution. The resulting p values were adjusted using the Benjamini and Hochberg's approach for controlling the False Discovery Rate (FDR). Genes with an adjusted p value of <0.05 found by DESeq2 were assigned as differentially expressed.

[6] = biological target: 6x His-14-3-3ε (full length human 14-3-3ε) (human) (UniProt P62258); test: ITC; 24 μM 14-3-3ε in the cell titrated with 360 μM TAMRA-9J10; 25°C; 50 mM HEPES, 150 mM NaCl, 0.5 mM DTT; one set of sites model
[7] = GFP-FOXO3a-AAA vs GFP, adjusted p <0.05

Oc1cccc(-c2nc(N3CCOCC3)c3oc4ncccc4c3n2)c1 [PI-103]
nuclear translocation of GFP-FOXO3a ([1]; 1 μM PI-103, positive control): high degree of nuclear translocation of GFP-FOXO3a

CCC(=C/[C@H](C)C/C=C/C(C)=C/[C@@H](C)C(=O)[C@@H](C)[C@H](O)[C@@H](C)C/C(C)=C/C(=O)O)/C=C/[C@@H]1OC(=O)C=C[C@@H]1C [leptomycin B]
relocalization of GFP-FOXO3a to the nucleus ([1]; U2OS-GFP-FOXO3a, 3 hr treatment, Figure 1A: PI-103 1 μM, GSK690693 1 μM, leptomycin 2 nM): can be relocalized to the nucleus

CC(C)C[C@H](N)C(=O)N[C@@H](CC(N)=O)C(=O)N[C@@H](CCCNC(=N)N)C(=O)N[C@H](C(=O)N1CCC[C@H]1C(=O)NCC(=O)N[C@@H](CCCNC(=N)N)C(=O)N[C@@H](CCCNC(=N)N)C(=O)N[C@@H](CCCNC(=N)N)C(=O)N[C@@H](CC(N)=O)C(=O)N[C@@H](COP(=O)(O)O)C(=O)N[C@@H](CC(N)=O)C(=O)O)[C@@H](C)O [unlabeled 9J10-derived phosphopeptide]
IC50 (9J10/14-3-3ε interaction): 9.8 ± 1.2 µM

6x His-14-3-3ε (full length human 14-3-3ε) (from UniProt P62258 1-255) (natural protein)
Kd [2]: 1470 nM

B1: Unlabelled 9J10 peptide (…(p-Serine)N-acid) (peptide)
peptide: LNRTPGRRRNSN
HELM: PEPTIDE1{L.N.R.T.P.G.R.R.R.N.[O=C([C@H](COP(=O)(O)O)N[*:1])[*:2]].N}$$$$V2.0; N-terminus assumed
SMILES: CC(C)C[C@H](N)C(=O)N[C@@H](CC(N)=O)C(=O)N[C@@H](CCCNC(=N)N)C(=O)N[C@H](C(=O)N1CCC[C@H]1C(=O)NCC(=O)N[C@@H](CCCNC(=N)N)C(=O)N[C@@H](CCCNC(=N)N)C(=O)N[C@@H](CCCNC(=N)N)C(=O)N[C@@H](CC(N)=O)C(=O)N[C@@H](COP(=O)(O)O)C(=O)N[C@@H](CC(N)=O)C(=O)O)[C@@H](C)O
EC80 [3]: 1 µM
IC50 [4]: 9.8 µM

B2: GFP-FOXO3a-AAA: constitutively active GFP-tagged FOXO3a mutant (protein, UniProt O43524 1-673, looked up, variant T32A S253A S315A)
Forkhead box protein O3: MAEAPASPAPLSPLEVELDPEFEPQSRPRSCAWPLQRPELQASPAKPSGETAADSMIPEEEDDEDDEDGGGRAGSAMAIGGGGGSGTLGSGLLLEDSARVLAPGGQDPGSGPATAAGGLSGGTQALLQPQQPLPPPQPGAAGGSGQPRKCSSRRNAWGNLSYADLITRAIESSPDKRLTLSQIYEWMVRCVPYFKDKGDSNSSAGWKNSIRHNLSLHSRFMRVQNEGTGKSSWWIINPDGGKSGKAPRRRAVAMDNSNKYTKSRGRAAKKKAALQTAPESADDSPSQLSKWPGSPTSRSSDELDAWTDFRSRTNANASTVSGRLSPIMASTELDEVQDDDAPLSPMLYSSSASLSPSVSKPCTVELPRLTDMAGTMNLNDGLTENLMDDLLDNITLPPSQPSPTGGLMQRSSSFPYTTKGSGLGSPTSSFNSTVFGPSSLNSLRQSPMQTIQENKPATFSSMSHYGNQTLQDLLTSDSLSHSDVMMTQSDPLMSQASTAVSAQNSRRNVMLRNDPMMSFAAQPNQGSLVNQNLLHHQHQTQGALGGSRALSNSVSNMGLSESSSLGSAKHQQQSPVSQSMQTLSDSLSGSSLYSTSANLPVMGHEKFPSDLDLDMFNGSLECDMESIIRSELMDADGLDFNFDSLISTQNVVGLNVGNFTGAKQASSQSWVPG
modifications: GFP tag
number of downregulated genes [5, 7]: 2,569 genes
number of upregulated genes [5, 7]: 3,026 genes
CDKN1A (p21^Cip1) expression ([5]; HEK293T): upregulated
CDKN1B (p27^Kip1) expression ([5]; HEK293T): upregulated

B3: TAMRA-9J10 peptide (5-TAMRA-…(p-Serine)N-acid) (peptide)
peptide: LNRTPGRRRNSN
HELM: PEPTIDE1{[CN(C)c1ccc2c(-c3ccc(C(=O)[*:2])cc3C(=O)[O-])c3ccc(N(C)C)cc3[o+]c2c1].L.N.R.T.P.G.R.R.R.N.[O=C([C@H](COP(=O)(O)O)N[*:1])[*:2]].N}$$$$V2.0
SMILES: CC(C)C[C@H](NC(=O)c1ccc(-c2c3ccc(N(C)C)cc3[o+]c3cc(N(C)C)ccc23)c(C(=O)[O-])c1)C(=O)N[C@@H](CC(N)=O)C(=O)N[C@@H](CCCNC(=N)N)C(=O)N[C@H](C(=O)N1CCC[C@H]1C(=O)NCC(=O)N[C@@H](CCCNC(=N)N)C(=O)N[C@@H](CCCNC(=N)N)C(=O)N[C@@H](CCCNC(=N)N)C(=O)N[C@@H](CC(N)=O)C(=O)N[C@@H](COP(=O)(O)O)C(=O)N[C@@H](CC(N)=O)C(=O)O)[C@@H](C)O
Kd [6]: 700 nM
